Test: yeast display, Sf9 membrane polyspecificity reagent, FACS + sequencing; frameworks hold sequencing errors
In short: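 Synthetic nanobody libraries on Saccharomyces cerevisiae BJ5465 were galactose-induced for 36–48 hours, stained 1 hour at 4 °C with 10% biotinylated, detergent-solubilized Sf9 membrane reagent and enriched on streptavidin microbeads. FACS then separated cells into low and high (top ~1%) gates by anti-HA (expression) and streptavidin (reagent binding) fluorescence. Genes were colony-PCR amplified, MiSeq 2 × 250 sequenced and CDR-length filtered. A clone's polyreactivity label is that of its gate of origin.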

Row | Sequence | polyreactivity (PSR sort gate)
1 | QVQLVDSGGGIVQAGGSLRLSCAASGSTFVANAMGWYRQAPGKECEFVAAISRSGVRTYYADSVKGRFTISRDNAKNTVYLQMNSLKPEDTAVYYCAADGYWWTYSRYDYWGQGTQVTVSS | low polyreactivity
2 | QVQLVDSGGGIVQAGGSLRLSCAASGSTFYSYAMGWYTQAPGKERELVAAINRDGVSTYYSDSVKGRFTISRYNAKNTVYLLMNSLKPEDTAVYYCNARHQTLRSYRYDYWGQGTQVSVSS | low polyreactivity
3 | QVQLVDSGGGIVQEGGSRRLSCAASGSIFVNYAMGWYRQAPGKERELVAAITLRGVSTFYADSVKGRFTISRDNAKNTVYLQMNSLKPEETAVYYCAASSLRYRAYKSLFDYWGQGTQVTVSS | low polyreactivity
4 | QVQLVDSGGGLGQAVGILRLSCAASGNIFLYYAMGWYRQAPGKEREMVAAISWSGSSTYYADSVKGRFTISRYNAKNTVYLQMNSLKPEVTAVYYCNATTSSKDAFCFILVFGQGDYWGQGTQVSVSS | low polyreactivity
5 | QVQLVDSGGGLVQAGASLRLSCAASGRTFYPYAMGWYRQAPAKERELDAAISSKGGITYYADSVKGRFTISRDNAKNTVYLQMNSLNPEDTAVYYCAALYTGESGYWGQGTQVSVSS | high polyreactivity
6 | QVQLVDSGGGLVQAGGRLRISSAASGRISQGNAMGWYRQAPGKERELVAGISRSGGSTYYADSVKGRFTISRDNAKKTVYLQMNSLKPEDTAVYYCAARYYWRGYYWGQGTQVTVSS | high polyreactivity
7 | QVQLVDSGGGLVQAGGRLRLSCAASGNNFVEYAMGWYRPAPGKERELVAAITNSGGRTHYADSVKRRFTISRDNAKNTVYLQMNSLKPEDTGVYYCAAPTKYRSRRYYWGQGTLVTVSS | high polyreactivity
8 | QVQLVDSGGGLVQAGGRLRLSCAASGRTFSVNAMGWYRQAPGKERELVAAIRWRAGSTYYADSVKGRFTISRDNAKNTVYLQMNSLKPEDTAVYYCNAVTYGGRTLFPYDYWGQGTQVTVSS | high polyreactivity
9 | QVQLVDSGGGLVQAGGRLRLSCAASGSTFRLYAMGWYRQAPGKERELVAAISSNGVRTYYADSVKGRFTISRDNAKNTVYLQLNSLKPEDTAVYYCAARVYPAYPRGYDYWGQGTQVTVSS | high polyreactivity
10 | QVQLVDSGGGLVQAGGSHRLSCAASGRIFGDNAMGWYRQAPGKERELVAAIDWNDGNTYYADSVKGRFTISRDNANNTVYLQMNSLKPEDTAVYYCNTAGQDAEYDYWGQGTQVTVSS | low polyreactivity
11 | QVQLVDSGGGLVQAGGSIRLSCSPSGGTFGLNSMGWYRQAPGQERELVADIDGRGGSTYYADSVKGRFTISRDNAKNTVYLQMNRLKPEDPAVYYCADLAPFLSVPSELDYWRQGTQVTVSS | low polyreactivity
12 | QVQLVDSGGGLVQAGGSLPLSCAASGRIIAHYALGWYRQAPGKERELVAAIRRSGVSTYYADSVKGRFTISRDNANNTVYLQMHSLKPEDTAVYYCNARAYVSPYDYWGHGTQVTVSS | low polyreactivity
13 | QVQLVDSGGGLVQAGGSLPLSCAASGSIFSFYAMGWYRQAPGKERELVAAISGNGGRTYYADSVKGRFTISRDNAKNSVYLQMNSLKPEDTAVYYCAAYNSPRLCYWGQGTQVTVSS | high polyreactivity
14 | QVQLVDSGGGLVQAGGSLRFSCAASGSIFYSNAMGWYRQAPGKERELVAAISDGGTSTYYADSVKVRFTISRDNAKNTVYLQMNSLKPEDTAVYYCAAESTLQDWNWYKYYYWGQGTQVTVSS | low polyreactivity
15 | QVQLVDSGGGLVQAGGSLRISCAASGRTFYWYAMGWSRQAPGKEREFVAAISWNVGSTYYADSVKGRFTISRDHAKNTVYLQMNSLKPEDTAVYYCAAELGYPYSTYADWYYYWGQGTQVTVSS | high polyreactivity
16 | QVQLVDSGGGLVQAGGSLRLICAASGSTFARNTMGWYRQAPGKETELVAVISRGDSTYYADSVKGRFTISRDNAKNSVYLQMNSLKPEDTAVNYCIAYLRYAYPSKMDYWGQGTQVTVSS | low polyreactivity
17 | QVQLVDSGGGLVQAGGSLRLICAASGSTFNYYAMGSYRQAPGKERELVAAISYSSGRTYYADSVKGRFTISRDNSKNTVYLQMNSMKPEDTAVYYCAADRYMVSSSVHSFGYWGQGTQVTVSS | high polyreactivity
18 | QVQLVDSGGGLVQAGGSLRLSCAASGFIFIFYTMGWYRQAPGNERELVAAISRSGGSTYYADSVKGRFTISRDNAKNTVYLQMNSLKPEDTAVYYCAARAKLSHRWRSYYWGQGTQVTVSS | high polyreactivity
19 | QVQLVDSGGGLVQAGGSLRLSCAASGFIFLNNAMGWYRQAPGKERELVAAITWSGGSTYYADSVKGRFTISRDNAKNTVYLQMNSLKPEDTAVYYCAADGWLYYGVGYWGQGTQVTVSS | low polyreactivity
20 | QVQLVDSGGGLVQAGGSLRLSCAASGFIFLTYGMGWYRQAPGKERELVATITSVGSTNYADSVKGRFTISRDNAKNTVYLQMNSLKPEDTAVYYCAAVSTYHVEFDFWAEYGYWGQGTQVTVSS | low polyreactivity
21 | QVQLVDSGGGLVQAGGSLRLSCAASGFIFPSYVMGWYRQAPGKERELVATISRTGGSTYYADSVKGRYTISRDNAKNTVYLQMNSLKPEYTAVYFCAAYRYSYLQLMDYWGQGTQVTVSS | high polyreactivity
22 | QVQLVDSGGGLVQAGGSLRLSCAASGFIFRYYAMGWYRQAPGTERELVAAISRSGGSTYYADSVKGRFTISRDNAKNTVYLQMYSLKPEDTAVYYCNRGDVIGRQYDSAYGYWGQGTQVTVSS | high polyreactivity
23 | QVQLVDSGGGLVQAGGSLRLSCAASGFSLSINAMGWYRQAPGKERELVDGISWSGGSTYYADSVKGRFTISRDNAKTTFYLQMNSLKTEDTAVYYCNADLFLFVYFGQYYWRTYNYWGQGTQVTVSS | low polyreactivity
24 | QVQLVDSGGGLVQAGGSLRLSCAASGFTFTRYAMGWYRQAPGKERELVADITRGGSTNYADSVKARFTISRDNAKNTVYLQMNSLKPEDTAVYYCNAGAITNYDYCGQGTQVTVSS | high polyreactivity
25 | QVQLVDSGGGLVQAGGSLRLSCAASGFTFYSYAMGWYRPAPGKERELFAAISKSGGRSYYADSVKGRFTISRDNAKNTVYLQMKSLKPEDTGVYYCNTYGAFRSLETYDYWGQGSQVTVSS | high polyreactivity
26 | QVQLVDSGGGLVQAGGSLRLSCAASGFTIYANAMGWYRQAPGKERELVAAITSSSGRTYYADSVKGRFTISRDNAKNTVYLQMNSLIPEETAVYYCAARWSPYDYWGQGTQVTVSS | low polyreactivity
27 | QVQLVDSGGGLVQAGGSLRLSCAASGIIFVENAMGWYRQAPGKEREMVAAISWDGGSTYYADSVKGRFTISRDNAKNTVYLQMNSLKPEDTAVYYCAADLTISYSQEYYYWGQGTQVTVSS | low polyreactivity
28 | QVQLVDSGGGLVQAGGSLRLSCAASGIISIVYAMGWYRQAPGKERELVAAISSGGSTYYADSVKGRFTISRDNAKNTVYLQMNRLKPEDTAVYYCATAYRYPPNAYFQRMDSWGQGTQVTVSS | high polyreactivity
29 | QVQLVDSGGGLVQAGGSLRLSCAASGITFKRYAMGWYRQAPGKERELVAAITGIGGSTYYADSVKGRFTISSDNAKNTVYLQMNSLKPEDTAVYYCAARNNKKYDYWGQGTQVTVSS | high polyreactivity
30 | QVQLVDSGGGLVQAGGSLRLSCAASGITFSWYAMGWYRQAPGKERELVAAITRNGGSTYYADSVKGRFTISRDNAKNTVYLLMNSLKPEDTAVYYCNARKKYENYYWGQGTQVTVSS | high polyreactivity

Reference: the nanobody polyreactivity screen of Harvey et al. (2022)
